The text below walks through data of patent publication US20240174727A1, “LONG-ACTING NATRIURETIC PEPTIDES AND USES THEREOF” (Eli Lilly and Company, priority 2022, published 2024).

What all share (assay): cell-based or functional assay
The target in assay [1] is T1, human NPRA (human, UniProt P16066 33-1061).
T1 sequence (looked up): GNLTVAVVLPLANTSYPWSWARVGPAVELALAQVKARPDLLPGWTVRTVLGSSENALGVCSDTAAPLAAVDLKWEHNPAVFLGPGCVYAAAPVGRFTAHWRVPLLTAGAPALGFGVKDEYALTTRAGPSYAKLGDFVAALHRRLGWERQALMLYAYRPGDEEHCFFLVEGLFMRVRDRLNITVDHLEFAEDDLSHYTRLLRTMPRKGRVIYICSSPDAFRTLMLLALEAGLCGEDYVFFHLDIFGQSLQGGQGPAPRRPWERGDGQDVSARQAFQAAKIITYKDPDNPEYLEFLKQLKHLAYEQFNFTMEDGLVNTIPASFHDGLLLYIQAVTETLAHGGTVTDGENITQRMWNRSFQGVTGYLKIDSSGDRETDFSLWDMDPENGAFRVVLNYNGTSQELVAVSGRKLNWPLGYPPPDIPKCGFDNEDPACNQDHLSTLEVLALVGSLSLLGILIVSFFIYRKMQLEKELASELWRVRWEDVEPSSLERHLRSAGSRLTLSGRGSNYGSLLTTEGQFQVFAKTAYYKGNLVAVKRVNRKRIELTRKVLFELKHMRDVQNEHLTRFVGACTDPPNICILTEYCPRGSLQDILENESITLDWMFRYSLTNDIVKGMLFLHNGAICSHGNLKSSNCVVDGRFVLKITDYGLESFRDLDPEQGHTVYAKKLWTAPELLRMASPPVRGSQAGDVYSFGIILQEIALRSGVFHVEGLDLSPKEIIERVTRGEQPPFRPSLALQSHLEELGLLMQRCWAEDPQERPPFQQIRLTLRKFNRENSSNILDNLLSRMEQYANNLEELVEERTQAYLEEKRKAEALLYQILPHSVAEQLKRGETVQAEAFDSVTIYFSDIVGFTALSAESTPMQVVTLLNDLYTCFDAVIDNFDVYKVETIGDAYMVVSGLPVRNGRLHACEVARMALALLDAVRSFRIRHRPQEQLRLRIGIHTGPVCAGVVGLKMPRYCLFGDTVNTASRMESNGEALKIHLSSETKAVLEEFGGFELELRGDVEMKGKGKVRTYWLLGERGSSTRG

The target in assay [2] is T2, rat NPRA (rat, UniProt P18910 29-1057).
T2 sequence (looked up): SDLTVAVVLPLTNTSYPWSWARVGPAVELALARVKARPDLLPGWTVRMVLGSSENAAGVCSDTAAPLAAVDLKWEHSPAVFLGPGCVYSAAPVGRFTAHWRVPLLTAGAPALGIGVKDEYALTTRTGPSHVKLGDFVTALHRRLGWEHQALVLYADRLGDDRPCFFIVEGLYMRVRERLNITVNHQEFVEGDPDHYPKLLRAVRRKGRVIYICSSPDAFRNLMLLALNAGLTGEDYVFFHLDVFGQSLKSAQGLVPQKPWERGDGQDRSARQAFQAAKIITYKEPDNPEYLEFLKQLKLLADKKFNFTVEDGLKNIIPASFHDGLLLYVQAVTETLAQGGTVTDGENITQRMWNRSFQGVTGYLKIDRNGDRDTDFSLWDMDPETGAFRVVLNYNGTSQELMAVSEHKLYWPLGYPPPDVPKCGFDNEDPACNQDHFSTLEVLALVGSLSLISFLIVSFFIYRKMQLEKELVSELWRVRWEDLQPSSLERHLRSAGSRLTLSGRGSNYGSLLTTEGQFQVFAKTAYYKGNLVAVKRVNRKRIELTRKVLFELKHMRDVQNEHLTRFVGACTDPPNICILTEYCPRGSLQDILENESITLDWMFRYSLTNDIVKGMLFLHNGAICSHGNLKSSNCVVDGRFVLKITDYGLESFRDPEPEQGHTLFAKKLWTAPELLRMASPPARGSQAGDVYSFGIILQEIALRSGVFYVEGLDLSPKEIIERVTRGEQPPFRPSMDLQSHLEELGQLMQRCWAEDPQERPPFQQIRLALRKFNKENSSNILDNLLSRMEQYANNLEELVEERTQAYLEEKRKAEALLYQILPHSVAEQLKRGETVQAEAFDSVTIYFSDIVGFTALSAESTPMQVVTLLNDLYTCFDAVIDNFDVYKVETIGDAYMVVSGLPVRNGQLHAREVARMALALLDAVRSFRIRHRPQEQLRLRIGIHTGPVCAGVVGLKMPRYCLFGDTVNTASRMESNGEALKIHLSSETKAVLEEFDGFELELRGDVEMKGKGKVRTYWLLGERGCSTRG

Assay [3] deals with T3, rat NPRA (rat, UniProt P18910 29-1057).
T3 sequence (looked up): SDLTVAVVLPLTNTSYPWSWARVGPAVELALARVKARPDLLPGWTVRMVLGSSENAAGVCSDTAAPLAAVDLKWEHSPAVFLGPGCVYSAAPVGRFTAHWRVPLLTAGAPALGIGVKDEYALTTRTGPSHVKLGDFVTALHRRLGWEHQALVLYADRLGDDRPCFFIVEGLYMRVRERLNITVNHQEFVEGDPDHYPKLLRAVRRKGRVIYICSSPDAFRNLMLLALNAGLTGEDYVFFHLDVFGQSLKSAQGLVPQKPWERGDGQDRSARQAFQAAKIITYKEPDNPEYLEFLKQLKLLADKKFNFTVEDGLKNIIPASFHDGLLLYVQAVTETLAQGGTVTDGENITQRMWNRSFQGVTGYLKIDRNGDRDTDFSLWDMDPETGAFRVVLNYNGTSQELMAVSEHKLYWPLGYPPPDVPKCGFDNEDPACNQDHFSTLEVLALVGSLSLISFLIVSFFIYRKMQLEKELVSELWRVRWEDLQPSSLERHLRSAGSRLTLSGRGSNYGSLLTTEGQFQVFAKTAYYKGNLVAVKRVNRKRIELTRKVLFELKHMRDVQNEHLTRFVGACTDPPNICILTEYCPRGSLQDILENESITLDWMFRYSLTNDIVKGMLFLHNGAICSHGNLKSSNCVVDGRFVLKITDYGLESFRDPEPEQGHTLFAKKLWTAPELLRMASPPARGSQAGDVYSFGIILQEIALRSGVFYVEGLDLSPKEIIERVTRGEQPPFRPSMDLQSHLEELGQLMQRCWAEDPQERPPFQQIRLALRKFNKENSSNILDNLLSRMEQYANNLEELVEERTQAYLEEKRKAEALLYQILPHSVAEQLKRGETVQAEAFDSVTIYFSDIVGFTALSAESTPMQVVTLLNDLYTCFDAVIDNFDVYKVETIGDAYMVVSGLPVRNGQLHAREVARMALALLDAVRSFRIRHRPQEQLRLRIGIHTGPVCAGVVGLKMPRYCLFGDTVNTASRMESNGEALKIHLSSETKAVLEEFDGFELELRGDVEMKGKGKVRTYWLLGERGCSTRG
This is another data set of the same source.

Assay [4] concerns the target T4, human NPRA (human, UniProt P16066 33-1061).
T4 sequence (looked up): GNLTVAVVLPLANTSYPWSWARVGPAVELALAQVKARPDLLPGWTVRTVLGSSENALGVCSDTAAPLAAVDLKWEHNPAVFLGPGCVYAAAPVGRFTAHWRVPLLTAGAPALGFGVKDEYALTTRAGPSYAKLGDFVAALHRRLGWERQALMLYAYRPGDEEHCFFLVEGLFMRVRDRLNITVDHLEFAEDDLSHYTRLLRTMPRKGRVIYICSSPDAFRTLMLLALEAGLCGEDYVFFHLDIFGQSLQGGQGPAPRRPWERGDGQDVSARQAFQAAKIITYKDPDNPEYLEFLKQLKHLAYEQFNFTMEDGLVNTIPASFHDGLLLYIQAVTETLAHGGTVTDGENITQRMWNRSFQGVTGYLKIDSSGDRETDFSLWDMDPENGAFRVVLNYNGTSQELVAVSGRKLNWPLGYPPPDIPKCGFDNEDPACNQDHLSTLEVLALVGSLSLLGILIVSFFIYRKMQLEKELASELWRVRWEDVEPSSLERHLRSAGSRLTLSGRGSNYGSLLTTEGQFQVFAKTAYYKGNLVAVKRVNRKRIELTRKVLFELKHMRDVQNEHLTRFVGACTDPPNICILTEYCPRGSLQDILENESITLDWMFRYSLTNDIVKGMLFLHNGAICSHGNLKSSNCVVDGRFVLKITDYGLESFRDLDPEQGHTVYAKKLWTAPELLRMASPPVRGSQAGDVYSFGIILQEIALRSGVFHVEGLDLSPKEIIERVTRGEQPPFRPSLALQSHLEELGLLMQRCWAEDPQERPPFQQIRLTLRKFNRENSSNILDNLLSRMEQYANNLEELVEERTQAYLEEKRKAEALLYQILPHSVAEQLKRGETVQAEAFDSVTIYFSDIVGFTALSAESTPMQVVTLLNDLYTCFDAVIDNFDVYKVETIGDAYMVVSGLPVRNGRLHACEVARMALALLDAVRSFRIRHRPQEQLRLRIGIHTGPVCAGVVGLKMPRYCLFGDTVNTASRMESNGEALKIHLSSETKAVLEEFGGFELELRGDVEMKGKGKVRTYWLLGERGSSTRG
The source holds these as a separate data set.

Numbered stars: 1 amine (or outer) side, 2 acyl side, 3 side chain; on linkers, the order of the positions; unused ones are H or OH. Bridge positions count the residues as written; N and C are the ends. Square brackets hold non-standard residues; d marks the D form. * marks the point of attachment. thioacetal = thioacetal linkage between two cysteines (intrachain bond at the bracketed Cys); C20 diacid = O=C(O)CCCCCCCCCCCCCCCCCCC(=O)*; γGlu = O=C(O)[C@H](CCC(=O)[*:2])N[*:1]; 4Pal = N[C@@H](Cc1ccncc1)C(=O)O; βAla = NCCC(=O)O

B1: HOOC-(CH2)18-CO-(γGlu)-EKEKEKGEK-βAla-RSS[CFGKRIDRIGHYSGLGC]PSFRHGSPSSGAPPPS-NH2 (peptide)
peptide: {C20 diacid-γGlu}-EKEKEKGEK[βAla]RSSCFGKRIDRIGHYSGLGCPSFRHGSPSSGAPPPS-NH2
modifications: bridge 14-30 via thioacetal
On to B1, for which, in the assay with human NPRA [1], the “cGMP Assay (EC50, pM) w/BSA, hNPRA” value turned out to be 11600 pM and the “cGMP Assay (EC50, pM) w/Casein, hNPRA” value stood at 282 pM. Besides, in the assay with rat NPRA [2], the “cGMP Assay (EC50, pM) w/BSA, rNPRA” value was 138000 pM and the “cGMP Assay (EC50, pM) w/Casein, rNPRA” value came to 1340 pM.

B2: Example 20 (peptide)
peptide: {C20 diacid}-[γGlu]EKEKEKGS[4Pal]RRSSCFGGRIDRIGAQSGLGCPSFR[4Pal]-NH2
modifications: disulfide 15-31
SMILES: CC[C@H](C)[C@@H]1NC(=O)[C@H](CCCNC(=N)N)NC(=O)[C@H](CC(=O)O)NC(=O)[C@H]([C@@H](C)CC)NC(=O)[C@H](CCCNC(=N)N)NC(=O)CNC(=O)CNC(=O)[C@H](Cc2ccccc2)NC(=O)[C@@H](NC(=O)[C@H](CO)NC(=O)[C@H](CO)NC(=O)[C@H](CCCNC(=N)N)NC(=O)[C@H](CCCNC(=N)N)NC(=O)[C@H](Cc2ccncc2)NC(=O)[C@H](CO)NC(=O)CNC(=O)[C@H](CCCCN)NC(=O)[C@H](CCC(=O)O)NC(=O)[C@H](CCCCN)NC(=O)[C@H](CCC(=O)O)NC(=O)[C@H](CCCCN)NC(=O)[C@H](CCC(=O)O)NC(=O)CC[C@H](NC(=O)CCCCCCCCCCCCCCCCCCC(=O)O)C(=O)O)CSSC[C@@H](C(=O)N2CCC[C@H]2C(=O)N[C@@H](CO)C(=O)N[C@@H](Cc2ccccc2)C(=O)N[C@@H](CCCNC(=N)N)C(=O)N[C@@H](Cc2ccncc2)C(N)=O)NC(=O)CNC(=O)[C@H](CC(C)C)NC(=O)CNC(=O)[C@H](CO)NC(=O)[C@H](CCC(N)=O)NC(=O)[C@H](C)NC(=O)CNC1=O
With B2, the “cGMP Assay (EC50, pM) w/BSA” value with rat NPRA [3] was 104000 pM; with human NPRA [4], 129000 pM. Further, the “cGMP Assay (EC50, pM) w/Casein” value with rat NPRA [3] worked out at 1390 pM; in the assay with human NPRA [4], 2900 pM.

B3: Example 18 (peptide)
peptide: {C20 diacid}-[γGlu]EKEKEKGSHRRSSCFGGRIDRIGAQSGLGCPSFRH-NH2
modifications: disulfide 15-31
SMILES: CC[C@H](C)[C@@H]1NC(=O)[C@H](CCCNC(=N)N)NC(=O)[C@H](CC(=O)O)NC(=O)[C@H]([C@@H](C)CC)NC(=O)[C@H](CCCNC(=N)N)NC(=O)CNC(=O)CNC(=O)[C@H](Cc2ccccc2)NC(=O)[C@@H](NC(=O)[C@H](CO)NC(=O)[C@H](CO)NC(=O)[C@H](CCCNC(=N)N)NC(=O)[C@H](CCCNC(=N)N)NC(=O)[C@H](Cc2c[nH]cn2)NC(=O)[C@H](CO)NC(=O)CNC(=O)[C@H](CCCCN)NC(=O)[C@H](CCC(=O)O)NC(=O)[C@H](CCCCN)NC(=O)[C@H](CCC(=O)O)NC(=O)[C@H](CCCCN)NC(=O)[C@H](CCC(=O)O)NC(=O)CC[C@H](NC(=O)CCCCCCCCCCCCCCCCCCC(=O)O)C(=O)O)CSSC[C@@H](C(=O)N2CCC[C@H]2C(=O)N[C@@H](CO)C(=O)N[C@@H](Cc2ccccc2)C(=O)N[C@@H](CCCNC(=N)N)C(=O)N[C@@H](Cc2c[nH]cn2)C(N)=O)NC(=O)CNC(=O)[C@H](CC(C)C)NC(=O)CNC(=O)[C@H](CO)NC(=O)[C@H](CCC(N)=O)NC(=O)[C@H](C)NC(=O)CNC1=O
As for B3, the “cGMP Assay (EC50, pM) w/BSA” value with rat NPRA [3] worked out at 43200 pM; in the assay with human NPRA [4], 17100 pM. The “cGMP Assay (EC50, pM) w/Casein” value amounted to 693 pM with rat NPRA [3] and 460 pM with human NPRA [4].
